Data taken from PMC6707239 (Scientific Reports, 2019).
Residue numbers refer to the chain shown, from its start. In names and notes the source's numbering stands.

B1: human mitochondrial hsp60 D3G mutant (MitCHAP-60) (natural protein, UniProt P10809 27-573, looked up)
chain: AKGVKFGADARALMLQGVDLLADAVAVTMGPKGRTVIIEQSWGSPKVTKDGVTVAKSIDLKDKYKNIGAKLVQDVANNTNEEAGDGTTTATVLARSIAKEGFEKISKGANPVEIRRGVMLAVDAVIAELKKQSKPVTTPEEIAQVATISANGDKEIGNIISDAMKKVGRKGVITVKDGKTLNDELEIIEGMKFDRGYISPYFINTSKGQKCEFQDAYVLLSEKKISSIQSIVPALEIANAHRKPLVIIAEDVDGEALSTLVLNRLKVGLQVVAVKAPGFGDNRKNQLKDMAIATGGAVFGEEGLTLNLEDVQPHDLGKVGEVIVTKDDAMLLKGKGDKAQIEKRIQEIIEQLDVTTSEYEKEKLNERLAKLSDGVAVLKVGGTSDVEVNEKKDRVTDALNATRAAVEEGIVLGGGCALLRCIPALDSLTPANEDQKIGIEIIKRTLKIPAMTIAKNAGVEGSLIVEKIMQSSSEVGYDAMAGDFVNMVEKGIIDPTKVVRTALLDAAGVASLLTTAEVVVTEIPKEEKDPGMGAMGGMGGGMGGGMF
notes: human mitochondrial hsp60 (HspD1), mature protein without the mitochondrial signal peptide, disease mutation D3G, cloned into pET-22b; numbers count on: the mature protein; Mutation found in patients with MitCHAP-60; also called D3G-hsp60; source: E. coli BL21 (DE3), purified (ammonium sulfate, anion-exchange, size-exclusion chromatography)
B2: human mitochondrial hsp60 V72I mutant (SPG13) (natural protein, UniProt P10809 27-573, looked up)
chain: B1 chain with G3D, V72I
notes: human mitochondrial hsp60 (HspD1), mature protein without the mitochondrial signal peptide, disease mutation V72I, cloned into pET-22b; numbers count on: the mature protein; Mutation linked to SPG13; source: E. coli BL21 (DE3), purified (ammonium sulfate, anion-exchange, size-exclusion chromatography)

Target: the molecule itself
Test: dynamic light scattering; Malvern Zetasizer Nano ZS, hsp60 (wild type or mutant) without nucleotide (APO); percent volume

Protein | stoichiometry N
B1 | 14
B2 | 14
